Reference: PMC9908306

Biological target: human glyceraldehyde 3-phosphate dehydrogenase (GAPDH) (human) (UniProt P04406)
Assay: cryo-EM structure; single particle analysis of GAPDH on EG-grid, 0.5 mg/ml; D2 symmetry applied

human glyceraldehyde 3-phosphate dehydrogenase (GAPDH), P04406 1-335 (enzyme; other documents disagree on this pair), sequence (P04406 whole entry): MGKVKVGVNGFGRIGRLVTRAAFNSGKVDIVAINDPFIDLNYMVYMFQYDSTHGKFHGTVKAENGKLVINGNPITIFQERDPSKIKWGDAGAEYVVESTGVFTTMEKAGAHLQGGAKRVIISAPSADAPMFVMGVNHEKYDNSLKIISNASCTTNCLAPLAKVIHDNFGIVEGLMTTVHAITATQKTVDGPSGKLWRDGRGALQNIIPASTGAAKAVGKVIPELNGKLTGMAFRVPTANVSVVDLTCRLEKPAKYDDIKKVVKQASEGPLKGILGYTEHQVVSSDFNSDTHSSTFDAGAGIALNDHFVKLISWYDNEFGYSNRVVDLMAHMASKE

- stoichiometry N: 4
Substance: human glyceraldehyde 3-phosphate dehydrogenase (GAPDH), P04406 1-335 (enzyme; other documents disagree on this pair)
